The record followed here is a protein production outcome set (Wang et al. 2014).

A short description of this data set: label from the status in PepcDB records.
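Note: failed if final PepcDB status was selected cloned or expressed and not failed if soluble or beyond.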

For “MTEFKVVHTICPYCGTGCGIDLVVKDGKVVDSHPFKRHPVNEGKVCIKGNYCYEFVHSEDRLTKPLIKKNGEFIEATWDEALDLIAGKLKQYSPEEVAFFSCARGTNEESYALQKFARTVMKTNNVDHCARI”, the protein production result is recorded as “failed”.
For the sequence “MTEIATIEKPAQHGATTRLIDIVFPGDTNHHGTLFGGTGLALMDRVAFIAATRFGRTPFVTASCERIDFRQPARIGHIVEFTARPVKAGRRSLTVEVEMVAETIIGRQQHTCTRGIFHMVAIPEGEDAASYVLPELLTEETPDPSDAVTMVEIVFPDQANSAGRMFGGEAIAYMTKAAFVAASRYCGKLVVLASSERIDFARAIEIGEIVEAQAHVERVGRSSMSIQTKLWSENLLTGERHITATGHFTMVAVDKDHRPATIRDPAEAFSLEKGGA”, the protein production result is “not failed”.
To “MTEITGGTLVLVGADHPVAHLDVTAFEASVTHDVMAASVAGTGLGVSTATAAGLSHLVVDAGVAQPVQGARSVRIRGERGDLRHADAMTPVQVEALLRDGQALGAEASHDGLVCLGEVGVGNTTIATALACAMTGLGPDEAVGLGAGSDTAMVERKAEIIKAALTRTHTDPNDPERLLAALGGPEFAVLAGVCLGAAEAGSPVVLDGLATSVAALIATKFSPGLHGWLVASQASREQVHHIVLAELGLEALMELRMRAGLEHHHHHH” belongs “failed”; to “MTEKTIRVLVAGLGNMGRSHALAYHNNPGFEIVGLVNRSTPELAAELQGYTIHPDFMTALAELKPDLCSINTYSDSHADYAVAAFEAGCDVFVEKPLATTVADAERVVAAAGKAGRKLVIGYILRHHPSWMKLIGEARKLGPPYVFRMNLNQQSSGPTWATHKSLMRTTSPIVDCGVHYVDVMCQITDARAVEVRGMGLRMSDEIAADMYNYGHLQVLFEDGSVGWYEAGWGPMISETAFFVKDVMSPKGAVSIVMDPNAKSDDIDTHTKTSVIRLHTAETGPDGKFIRPDQDMTMEGEPGHQALCDLEQAFMLRAIREDLDLDRHMADAVASLRICLAADESVRTGQPVRL”, “failed”.
To “MTELAQLQASAEQAAALLKAMSHPKRLLILCMLSGSPGTSAGELTRITGLSASATSQHLARMRDEGLIDSQRDAQRILYSIKNEAVNAIIATLKNVYCP” belongs “not failed”; to “MTELDQFWPACLARLEAELSSQQFNTWIKPLTAEAGDEGIALFAPNRFIMQFIKDRFLPRIEELAVELVGELPVELRLGAPTARPAAPVAGNSQPKAKEPAKAAASAPAAPSPAKQAAVKAIGGSHESTRLNPSFTFDTLVTGKGNQLARAAAMQIAENPGDQAYNPLFVYGGVGLGKTHLIQAIGNHVFQKNPQAKIRYIHAERYVADIMRAYQHKAFDEFKRYYHSLDLLLIDDIQFFAGKNRTQEEFFYAFNALIEGGKQVIMTCDSYPKQIEGMEERLISRFSWGLTVEIQPPELEMRVAILMKKAEADSIKLEHNVAFFIAQNVRSNVRELEGALKRVVAYARFTSQNITLELVKEALKDILAAGNRQVTVDAIQKTVAEYYKIKLSDMHSKKRSRDIARPRQVAMALAKELTQLSLPNIGDAFGGRDHTTVLHACKTITEMRASDADIAHDYEALLSMLRNLEHHHHHH”, “failed”.
On to “MTELFIFDREDQLLTTLTESTGLVRALFREELNRVPNQPFAFTIEASSEEAKHVIEEHQVVFRDKEGDLRLFVIKELEDVDGLDGPQTTAICEPAFMELAEHMIVEQSVVNQPAHEALNVALQGTRWTGSVEVNLGNATEHFSYVSAIEAVWNILVTWGGDFKDVVTFNAENRITSHQIKIVQRRGVDRGKRFEIDHNIEQIERTILSYPVTALYGRGASLQGENGEDGSLDFGEVEWRKSAGAPVDKPKGQLWVGDPEALQKYGRKHNGQLLHREGIFQNTNIEDPEELLEKTWEQLQKSSKPEVHYRLSVRLFEHISGYEHEQASLGDTAIAIDRQFSRPIEIQSRIIAIEYDLVDIDGTGMVEMGQFLSLNGMDERLERIIEEIEKNQGKWGSSGTITRDKYPDIKPSAPVNLRAESGFQAIQLYWDYADELYIEHYEVYGSQVSDFVPDSQHLLWRGKVSAFAHFVDKDQQWYYYVRAVNFHGRPSDWSDKVSGSTQRIISDDILFGPDLAERLRELNRISDIIGEGGVNFEQISDHAKALLNQEARQYTDEEIRAVEDAINAELAEKAGLTYVEGKFSLIDSELEAVDGKFVSVSTQLAEIETEISLKAEQTQVDVIEGEITNVAQDLSQLTVSVNGVQSEVTSIRSGIGHLVEIVNGKATEYKLHFSFNASRDYLVLLTRADLTGARNYVAGTFFGRRVSGNVGSGKIEVIFNNSSNGDRASGYFEASEIQTLNGWSMVTCDYKGEKYIALRHQLPNEHDIWNTDTRFYGQIGSDSEMLLPVDNWGGNPDITNIQPFESSRPVATPIMRAETRIDQNSQQIALRATEINSLAGRMTQAEAELSVQATEIAARVEKDGIVTALNLSPEGIRIKGSLIHLDGTTLINDGVIQNAHIANAAITRAKLDTAVIGTAQIEDLAVTSAKIASVNADKINAASLSAISANLGTVTAGVMRSNNNNMELNLNTGTLNMRNTNFTLGSGADIEFTDPGNRLYFKQYDPVGNITRSAGFGIGRSINDRFPYGFLGTTNTTKPNPIDDQNFTGFITNTNQRMITDGIGNSVVGRIFHIRDQAVSFRKGVAFNFSDSTTMNIFPINTGSYDYVFGSNNNKWKDIHADNIRAAQVYIRNPVGTGGYLFETQPESGSATMVFRGINVSFSDWNYNLGTSSAPWNFGRINHLRPSGSSHSVGSFSERYNFVYTNTLVEGSDIKIKSDIKNSFLGLAFIKDLRPVDFQLVENEQYKTGLIAQEVAAELEHHGIDLEKQTIVTINDSVMGVSYTQLIAPTIKAIQELDSYVRDEVNSLKLENQRLKEKITKLEEKIA”, for which the protein production entry was “failed”.
As for “MTELMGQILGDRYELLRELGSHPGRRTYLALDRWHYEQVVLKLLLFGGGITWDDFKLFEREVAVLQTLDHPAIPRYLDYFEINTPDLKGFALVQTYIEAKSLALWQAEGRVFSEGDLRLLADRLLDILIYLHSRQPPVIHRDIKPTNILLGDRSGHDLGKVYLVDFGAVQTAIAGSTRTVVGTYGYMPPEQFGGKTLPASDLYALGMTLIYLATATPPDELPQKELRVQFQPLVSLSPPFIRWLEKMVAPALEERFDSATAARHALKQLDRSAEDASLITKTPPYGSRLQVRESPQGLLVHIPPVGLNASLFFLIPFAVAWNGFLVVWYSLAIASGFWLMAVFATGHLAVGLGLIGGILYRLLGWQVLMVSPKDLRFYEHILGFRWRHAKVLPLEVIEEIELQPRGTCRHQEDDRQQLWSKLVIRAGSQEIELTENAPRVTSRDLEWLAYTLGRYLGRRVTQARQDCRST”, the protein production result was “failed”.
In the case of “MTEMELKLIKIDTSHYFEKKPGLGERVDYAGRCFYNKFQRVNAMLTSSLIQKHLKREIEIAHNLILRNDKVENIVFDYNGRNPERFYHKAQLLLREEGFMNFTAYNTKTPGHLHLYVHKGHTELGEGERLVKTLSMKLAQGLPKEWKVFPSNEWPKEFNILALPYEVFAKERGSSWAKHL”, the protein production entry was “not failed”.
As for “MTENAEKFLWGVATSAYQIEGATQEDGRGPSIWDAFAQRPGAIRDGSTGEPACDHYRRYEEDIALMQSLGVRAYRFSVAWPRILPEGRGRINPKGLAFYDRLVDRLLASGITPFLTLYHWDLPLALEERGGWRSRETAFAFAEYAEAVARALADRVPFFATLNEPWCSAFLGHWTGEHAPGLRNLEAALRAAHHLLLGHGLAVEALRAAGARRVGIVLNFAPAYGEDPEAVDVADRYHNRFFLDPILGKGYPESPFRDPPPVPILSRDLELVARPLDFLGVNYYAPVRVAPGTGTLPVRYLPPEGPATAMGWEVYPEGLYHLLKRLGREVPWPLYVTENGAAYPDLWTGEAVVEDPERVAYLEAHVEAALRAREEGVDLRGYFVWSLMDNFEWAFGYTRRFGLYYVDFPSQRRIPKRSALWYRERIARAQT”, the protein production result was “not failed”.
In the case of “MTENGRYEYIVIGSEAAGVGLVRELTAAGKKVLAVDKSKEKIELLEDEGFDAVIADPTDESFYRSLDLEGVSAVLITGSDDEFNLKILKALRSVSDVYAIVRVSSPKKKEEFEEAGANLVVLVADAVKQAFMDKIKKMETL”, the protein production entry is listed as “not failed”.
As to “MTENGRYEYIVIGSEAAGVGLVRELTAAGKKVLAVDKSKEKIELLEDEGFDAVIADPTDESFYRSLDLEGVSAVLITGSDDEFNLKILKALRSVSDVYAIVRVSSPKKKEEFEEAGANLVVLVADAVKQAFMDKIKKMETLKKIEKLKRIMESLRGKRLGIFTHDNPDPDSMSSAYALREIAKQFDVIADILYYGEILHQKNRAMVNLLEIPMIRAPEVDLSHYDAFAIVDSSGPGVNNSIPPDIDISIVIDHHPAEKVVAEFVDLREDVGATATILTEYIKELKITPSKILATALFFGIKSETDEFKRNTRTADFLACAFLYPFVDQDLIEKIESPSISTETLDILGTAIKNRQVYSSFLISFAGFINDRDALPQAADFLLKLEGISTVVVFGVIKDTVYVSARNKDVRIHMGEVLRRAFGDVGSAGGHAHAAGAQIPLGIFGETNEKDLLAKLITEAITKRLLSAVGMEQS”, the protein production result is reported as “failed”.
To “MTENTFTDPSWLRLSCFIGVLLLCNLWENKLPRKTLTVKRSFRWLNNLSLVALNSAIIALVMPIAAFQAAAIAHDQQWGLFNLLSLPGWLNVLLAVIVLDLIIYVQHLVFHRVKPLWKIHRMHHADLDIDVTTGARFHPIEIIISMVVKITSVFILGVSPLAIVVFEIILNASAMFNHSNAKLALSIDKKLRKVIVTPDMHRVHHSVMVKETHSNFGFFLSVWDRWFGTYRAQPALGHNDVVIGVPEIREASEQRLDKLLTQPFRYREGKGKNVD” belongs “not failed”; to “MTEPEGYRRFLQLVAHEFFHLWNVKRIRPKALEQFDYEAENYTPSLWFSEGATSYYDLLLPLRAGLYGVDSFLEALGKDLSRYLTTPGRKVQPLAESSFDAWVKLYRRDAYSDNQQMSYYLKGQLVCWLLDLEIRNHQPDLEHHHHHH”, “failed”; to “MTEPYAVPVPRGYRVGVWEVHAPIATGAFGSVYAARRTGGDDTKASPTRPGGDDNTKAPPTRPGGDGTGHRPSRPGTTDTAGTDDSHGTGTGTGTGTPSRAQTDTAHPAEGDTDDPGHTSGNGTTGTDGTRRSHGTGTGTPSRAHTDTAHPAEGDTDNPGHTSGNGTTGTDGTGRSHGTGTGTGTHNPSRVQTGAAHPAKGDTDNPGRTGGDGTARRPGRAGVVGAGRGGDAGGEVPDTVALKFLPTGTGTPRQLAHLRDLVEREVELLRRLRRPRLIRMYETLTVDDPAHPRLDGATVLVLERAEGSLSALLAATPRPPAGPALLAQVCEGLQQLHRAGWVHGDLKPANVLLMADGSARLADFNMAAELEGTHAYTPAFATPDYTPPELLWSEIGERGRRIRPSADVWAFGVLAHLVLTGSFPLPGGTPTARRDAAVAYARGGHELRLSPEPPPGWREIVRACLTRTHADRIGTDALLRRVTGTTEGASGGAGFSPRTRARPRRRVLAALAAGLLALAALGYGVARWAGDGREPAAGPRPGGTGSVAAASYGAAELRTDRDVPPAYRLLIVETAHDCDREEVSPALIAAMLKVESDFDPDLADPAKDEYGIARWTPSVLRWWMNEDGTPGETVPQPPFPPAESVPAMGRYLCWIAPRLDAGLPGDRSVLVAVAYRTSYRKVNDAGGVPPKYRDYADRVAHHLKEYTPRRGK”, “failed”.
In the case of “MTEQERLELEAAAFRRLVAHLDSRKDVQNIDLMNLSGFCRNCLSKWYKAAADEKHIDITLDDAREVVYGMPYSEWKANYQKEASAEQQAAFVKESKHD”, the protein production result is “not failed”.
Next, “MTERKLVAERNFEVNGYDIDAMGIVSNIVYIRWFEDLRTDFINQYMPYSDMMNQQISPILMNTEAEYKTPITIHDKPVGRCYLVKASKLRWEFEFEIESEDAVHCIGKQSGTFFDLQKKKVTRLPEVFQTILSLEHHHHHH”: “failed”; “MTERSDYSIRIMSRQEIGMAVDWAAEEGWNPGLHDADCFHAADPEGFLTGLLGNEPVATISVVRYGTAFGFLGFYIVRPKYRGMGFGLKIWNAGLEQLKGRTIGLDGVVAQQENYAKSGFILAYRNIRVKGSGGGKIPAHEGIKPLVELPFETLLTYDSLFFPEERRTFLECWINQRESSSLGIIENNRLSGYGVIRTCRSGSKIGPLFADRADLAEELFCALKASAPEGSPLFLDIPEVNPEAVKLAQRHNMTVVFETSRMYQGNIPELPLGNIYGVTTFELG”: “failed”.
